# Measurements taken from doi:10.1101/2021.04.13.439572.
# pKi: −log10 of the molar value.
# What was measured:
# Experiment in all cases: fluorescence polarisation
# [1] = biological target: MDM2 SWIB, cleaved from the His-GST tag, for affinity measurements
# [2] = biological target: TLN1 PTB, tag cleaved, for affinity measurements
# [3] = biological target: KPNB1 HEAT, tag cleaved, for affinity measurements
# [4] = biological target: KPNA4 ARM, MBP-tagged, for affinity measurements
# [5] = biological target: 14-3-3 protein sigma (14-3-3 SFN), tag cleaved, for affinity measurements
substance,measurement,setting,value
NUMB_(615-630) synthetic peptide (from UniProt P49757 615-630),pKi,[1],5.48
integrin beta-3 ITB3_(763-778) synthetic peptide,pKi,[2],3.30
RNF115_(69-84) synthetic peptide (from UniProt Q9Y4L5 69-84),pKi,[1],6.77
KPNA2_(514-529) C-terminal synthetic peptide (from UniProt P52292 514-529),pKi,[3],3.00
NKX2-5_(192-207) K194R synthetic peptide (from UniProt P52952 192-207),fold loss of affinity against wild-type NKX2-5 (192-207),[4],10 fold
MAP1A_(1836-1851) synthetic peptide,pKi,[5],3.45
